Measured values taken from patent publication US20120058906A1 (published 2012).

Legend:
[1] = molecular target: T1, rHuman ErbB2/Fc Chimera, CF (R&D Systems Cat#1129-ER) (human, UniProt P04626 23-652); experiment: MSD ECL multi-spot plate, antigen immobilized; Fab 1.6 nM; blank spot 565
T1 construct: Purchased Fc chimera; also called HER2/neu; not shown: Fc portion of the purchased chimera

[2] = molecular target: T2, rHuman IGF-1 sR (insulin-like growth factor-1 soluble receptor), CF (R&D Systems Cat#391-GR) (human, UniProt P08069 31-932); experiment: MSD ECL titration, Fab 148.9 nM, blank 218
T2 construct: Bought soluble receptor; also called IGF-R1

[3] = molecular target: T3, rHuman P-Cadherin/Fc Chimera, CF (R&D Systems Cat#861-PC) (human, UniProt P22223 108-654); experiment: MSD ECL titration, Fab 148.9 nM, blank 218
T3 construct: Bought Fc chimera; Fc part of the bought chimera not given

[4] = molecular target: T4, Recombinant Human DLL4 (R&D Systems Cat#1506-D4/CF) (human, UniProt Q9NR61 27-524); experiment: MSD ECL titration, Fab 148.9 nM, blank 218
T4 construct: Bought recombinant protein; also called rHuman DLL4; delta-like protein 4

[5] = molecular target: T5, rHuman Erythropoietin R/Fc Chimera, CF (R&D Systems Cat#963-ER) (human, UniProt P19235 25-250); experiment: ECL (MSD Multi-Spot) binding assay, antigen spotted on plate; Fab 480 nM; blank spot 362
T5 construct: Bought Fc chimera; also called EPO R/Fc; Epo R; Fc part of the bought chimera not given
T5 sequence: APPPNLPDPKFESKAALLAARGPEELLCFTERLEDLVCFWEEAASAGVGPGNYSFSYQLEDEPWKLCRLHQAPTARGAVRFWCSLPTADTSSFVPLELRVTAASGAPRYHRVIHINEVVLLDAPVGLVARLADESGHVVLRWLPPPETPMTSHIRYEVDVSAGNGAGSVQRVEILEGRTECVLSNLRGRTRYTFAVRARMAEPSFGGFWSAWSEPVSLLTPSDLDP

[6] = molecular target: T6, Recombinant Human DLL4 (R&D Systems Cat#1506-D4/CF) (human, UniProt Q9NR61 27-524); experiment: as above
T6 construct: Bought recombinant protein; also called delta-like protein 4; rHuman DLL4

[7] = molecular target: T7, rHuman Notch-1/Fc Chimera, CF (R&D Systems Cat#3647-TK) (human, UniProt P46531 19-526); experiment: as above
T7 construct: Bought Fc chimera; Fc part of the bought chimera not given

[8] = molecular target: T8, rHuman CD44/Fc Chimera, CF (R&D Systems Cat#3660-CD) (human, UniProt P16070 21-220); experiment: as above
T8 construct: Bought Fc chimera; Fc part of the bought chimera not given

[9] = molecular target: T9, rHuman P-Cadherin/Fc Chimera, CF (R&D Systems Cat#861-PC) (human, UniProt P22223 108-654); experiment: as above
T9 construct: Bought Fc chimera; also called CDH3; Fc part of the bought chimera not given

[10] = molecular target: T10, rHuman Erythropoietin R/Fc Chimera, CF (R&D Systems Cat#963-ER) (human, UniProt P19235 25-250); experiment: ECL (MSD multi-spot), antigen spotted on plate; Fab 352.5 nM; blank spot 494
T10 construct: Bought reagent; also called EPO R/Fc; Epo R; Fc part of the bought chimera not given
T10 sequence: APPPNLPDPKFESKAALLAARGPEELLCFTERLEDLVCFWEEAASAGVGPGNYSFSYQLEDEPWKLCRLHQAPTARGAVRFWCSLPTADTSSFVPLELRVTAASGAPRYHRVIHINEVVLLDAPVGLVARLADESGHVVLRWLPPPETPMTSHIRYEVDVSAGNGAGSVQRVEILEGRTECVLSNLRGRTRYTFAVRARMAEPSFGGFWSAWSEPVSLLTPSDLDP

[11] = molecular target: T11, Recombinant Human DLL4 (R&D Systems Cat#1506-D4/CF) (human, UniProt Q9NR61 27-524); experiment: as above
T11 construct: Bought reagent; also called delta-like protein 4

[12] = molecular target: T12, rHuman ErbB2/Fc Chimera, CF (R&D Systems Cat#1129-ER) (human, UniProt P04626 23-652); experiment: as above
T12 construct: Bought reagent; also called HER2/neu; human epidermal growth factor 2 receptor; Fc part of the bought chimera not given

[13] = molecular target: T13, rHuman EGF R/Fc Chimera, CF (R&D Systems Cat#344-ER) (human, UniProt P00533 25-645); experiment: as above
T13 construct: Bought reagent; also called epidermal growth factor receptor; Fc part of the bought chimera not given

[14] = molecular target: T14, rHuman HGF R/c-MET/Fc Chimera, CF (R&D Systems Cat#358-MT/CF) (human, UniProt P08581 25-932); experiment: as above
T14 construct: Bought reagent; also called HGF R/Fc; hepatocyte growth factor receptor; Fc part of the bought chimera not given

[15] = molecular target: T15, rHuman Notch-1/Fc Chimera, CF (R&D Systems Cat#3647-TK) (human, UniProt P46531 19-526); experiment: as above
T15 construct: Bought reagent; Fc part of the bought chimera not given

[16] = molecular target: T16, rHuman CD44/Fc Chimera, CF (R&D Systems Cat#3660-CD) (human, UniProt P16070 21-220); experiment: as above
T16 construct: Bought reagent; Fc part of the bought chimera not given

[17] = molecular target: T17, rHuman IGF-1 sR (IGF-1 sR), CF (R&D Systems Cat#391-GR) (human, UniProt P08069 31-932); experiment: as above
T17 construct: Bought soluble receptor; also called insulin-like growth factor-1 soluble receptor; IGF-R1

[18] = molecular target: T18, rHuman P-Cadherin/Fc Chimera, CF (R&D Systems Cat#861-PC) (human, UniProt P22223 108-654); experiment: as above
T18 construct: Bought reagent; also called CDH3; Fc part of the bought chimera not given
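Note: blank spot per well as comparator with Hit at signal to blank ratio of 4 or more.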

B1: Fab VH5-51_IGHD5-18*01>3_IGHJ4*01_G100K & V3-4_IGLJ1*01 (Fab, V domains shown)
VH: EVQLVQSGAEVKKPGESLKISCKGSGYSFTSYWIGWVRQMPGKGLEWMGIIYPGDSDTRYSPSFQGQVTISADKSISTAYLQWSSLKASDTAMYYCARRKYSYGYDYFDYWGQGTLVTVSS
VL: QTVVTQEPSFSVSPGGTVTLTCGLSSGSVSTSYYPSWYQQTPGQAPRTLIYSTNTRSSGVPDRFSGSILGNKAALTITGAQADDESDYYCVLYMGSGISYVFGTGTKVTVL
notes: It was expressed as a Fab: CH1 with tags from Plasmid A and lambda CL from Plasmid E; also called Fab No. 22
ECL signal [1]: 1320 ECL signal

B2: Fab VH1-46_IGHD6-6*01_IGHJ1*01 & L6_IGKJ1*01 (Fab, V domains shown)
VH: QVQLVQSGAEVKKPGASVKVSCKASGYTFTSYYMHWVRQAPGQGLEWMGIINPSGGSTSYAQKFQGRVTMTRDTSTSTVYMELSSLRSEDTAVYYCAREEYSSSSAEYFQHWGQGTLVTVSS
VL: not shown
notes: Expressed in E. coli as Fab: heavy chain with CH1 plus Flag and His tags from Plasmid A, kappa light chain constant region from Plasmid C; also called Fab No. 1
ECL signal [2]: 322 | ECL signal [3]: 687 | ECL signal [4]: 16300

B3: Fab VH6-1_IGHD3-3*01_IGHJ4*01 & V4-3_IGLJ4*01 (Fab, V domains shown)
VH: QVQLQQSGPGLVKPSQTLSLTCAISGDSVSSNSAAWNWIRQSPSRGLEWLGRTYYRSKWYNDYAVSVKSRITINPDTSKNQFSLQLNSVTPEDTAVYYCAREYYDFWSGYYTDYFDYWGQGTLVTVSS
VL: QPVLTQPTSLSASPGASARLTCTLRSGINLGSYRIFWYQQKPESPPRYLLSYYSDSSKHQGSGVPSRFSGSKDASSNAGILVISGLQSEDEADYYCMIWHSSASFVFGGGTQLIIL
notes: Tested as a Fab made in E. coli; also called IGHV6-1*01
ECL signal [5]: 621 | ECL signal [6]: 1530 | ECL signal [7]: 545 | ECL signal [8]: 541 | ECL signal [9]: 596

B4: Fab VH1-46_IGHD3-10*01_IGHJ4*01 & B3_IGKJ1*01 (Fab, V domains shown)
VH: QVQLVQSGAEVKKPGASVKVSCKASGYTFTSYYMHWVRQAPGQGLEWMGIINPSGGSTSYAQKFQGRVTMTRDTSTSTVYMELSSLRSEDTAVYYCAREYYYGSGSYYNDYFDYWGQGTLVTVSS
VL: not shown
notes: also called IGHV1-46*01
ECL signal [10]: 4100 | ECL signal [11]: 660 | ECL signal [12]: 514 | ECL signal [13]: 769 | ECL signal [14]: 606 | ECL signal [15]: 715 | ECL signal [16]: 556 | ECL signal [17]: 528 | ECL signal [18]: 649
